Source: patent publication US20260166166A1 (CURON BIOPHARMACEUTICAL SHANGHAI, published 2026)
Where a chain is given by its changes, count along the chain named.

Biological target: T1, L1 cell adhesion molecule (L1CAM) on the surface of HeLa cells (human, UniProt P32004 20-1257)
T1 construct: whole, on cells; Endogenous L1CAM of HeLa cells ("HeLa cells that highly express human L1CAM"); also called CD171; human L1CAM
Experiment: flow cytometry on HeLa cells, MFI dose-response
Method: Humanized anti-L1CAM antibodies (Human IgG1-Kappa) are diluted in complete medium, in a four-fold serial dilution, with 7 concentration gradient points.
HeLa cells are cultured in DMEM complete medium (Corning, 10-013-CVR) containing 10% FBS (Gibco, 10099-141) and 100 U/mL penicillin-streptomycin mixture (Thermofisher, 15140122). When the cell coverage in the culture container reaches 80-90%, TrypLE (Thermofisher, 12604-013) is used to digest the HeLa cells from the culture container, and they are seeded in a 96-well plate (AXYGEN, P-96-450V-C) at a density of 2.2×10⁶ cells/ml, with 100,000 cells (45 μL complete medium) per well. Then, 5 μL of the antibody dilution is added to each well, mixed gently, and the 96-well plate is incubated at 4° C. for 1 hour. Then, 150 μL of PBS (Corning, 21-040-CVC) containing 2% FBS is added to each well, centrifuged at 1400 rpm for 4 minutes, the supernatant is removed, and washed once again. Then, 50 μL of Alexa Fluor 647-labeled goat anti-human fluorescent secondary antibody (Jacksonimmuno, 109-605-088) diluted at 1:800 is added to each well, and the 96-well plate is incubated at 4° C. for 0.5 hours. The cells are washed twice with PBS solution containing 2% FBS, then resuspended in 120 μL of PBS, and the fluorescent signal on the cell surface is detected using a flow cytometer (BD FACS Celesta), obtaining and the median fluorescence intensity (MFI). A dose-response curve is generated, and the half-maximal effective concentration (EC50) is calculated using non-linear regression with GraphPad software.

T1 sequence (P32004 20-1257): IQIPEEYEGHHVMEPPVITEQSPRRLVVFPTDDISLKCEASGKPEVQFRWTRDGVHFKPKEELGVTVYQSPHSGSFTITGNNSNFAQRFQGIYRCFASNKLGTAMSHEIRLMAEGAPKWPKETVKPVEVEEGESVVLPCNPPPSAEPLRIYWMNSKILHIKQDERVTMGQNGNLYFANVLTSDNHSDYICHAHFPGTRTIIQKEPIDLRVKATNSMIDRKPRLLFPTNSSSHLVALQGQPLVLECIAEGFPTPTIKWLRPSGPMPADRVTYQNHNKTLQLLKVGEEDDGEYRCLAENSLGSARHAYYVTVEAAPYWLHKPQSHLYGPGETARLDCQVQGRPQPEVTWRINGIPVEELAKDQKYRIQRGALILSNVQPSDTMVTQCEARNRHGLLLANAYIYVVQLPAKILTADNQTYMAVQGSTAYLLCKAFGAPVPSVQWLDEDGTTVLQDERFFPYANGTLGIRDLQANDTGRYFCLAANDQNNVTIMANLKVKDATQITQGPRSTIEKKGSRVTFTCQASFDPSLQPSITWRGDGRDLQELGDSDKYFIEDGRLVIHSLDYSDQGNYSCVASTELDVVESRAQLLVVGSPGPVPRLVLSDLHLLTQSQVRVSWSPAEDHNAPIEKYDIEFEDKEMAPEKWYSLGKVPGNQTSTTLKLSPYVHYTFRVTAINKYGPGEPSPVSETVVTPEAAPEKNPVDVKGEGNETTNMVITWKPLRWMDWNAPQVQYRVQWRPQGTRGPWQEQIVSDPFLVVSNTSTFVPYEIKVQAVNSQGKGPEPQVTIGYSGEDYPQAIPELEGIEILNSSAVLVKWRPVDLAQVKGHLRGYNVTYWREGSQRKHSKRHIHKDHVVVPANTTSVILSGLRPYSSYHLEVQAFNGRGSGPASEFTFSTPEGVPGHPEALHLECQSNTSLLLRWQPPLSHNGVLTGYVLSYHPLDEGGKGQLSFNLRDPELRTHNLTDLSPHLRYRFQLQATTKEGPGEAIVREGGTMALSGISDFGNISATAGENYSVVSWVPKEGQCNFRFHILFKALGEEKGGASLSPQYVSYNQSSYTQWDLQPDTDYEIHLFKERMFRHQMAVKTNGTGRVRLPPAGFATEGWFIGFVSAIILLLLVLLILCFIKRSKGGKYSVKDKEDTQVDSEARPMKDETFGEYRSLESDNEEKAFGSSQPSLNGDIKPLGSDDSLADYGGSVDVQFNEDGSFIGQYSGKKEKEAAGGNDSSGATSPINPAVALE

B1: hz49E10H1H5L6 (antibody, human IgG1, kappa, V domains shown)
VH: DVQLQESGPGLVKPSQTLSLTCTVSGGSISSDYAWNWIRQPPGKGLEWMGYITYSGTTTYNPSLKSRITISRDTSKNQFSLKLSSVTAADTAVYYCARDHYGNYAYFDYWGQGTTVTVSS
VL: DIQMTQSPSSLSASVGDRVTITCRASSSVSFMHWYQQKPGKAPKPWIYASSNLVSGVPSRFSGSGSGTDFTLTISSLQPEDFATYYCQQWSSNPSTFGGGTKVEIKR
notes: also called humanized anti-L1CAM antibody
  EC50: 0.404 nM

B2: hz103E9B3H5L5 (antibody, human IgG1, kappa, V domains shown)
VH: EVQLVQSGAEVKKPGASVKVSCKASGYTFTSYTMHWVRQAPGQGLEWMGDINPNYGGTSYNEKFKDRVTMTTDTSTSTAYMELRSLRSDDTAVYYCAREGATGTWYFDVWGQGTTVTVSS
VL: B1 VL with R24S, H33F, W46L, A49L, S50T, V54A, S91R, S95P
notes: as for B1
  EC50: 1.68 nM

B3: hz103E9B3H6L5 (antibody, human IgG1, kappa, V domains shown)
VH: B2 VH with V68A
VL: B1 VL with R24S, H33F, W46L, A49L, S50T, V54A, S91R, S95P
notes: as for B1
  EC50: 1.48 nM

B4: hz49E10H1H5L7 (antibody, human IgG1, kappa, V domains shown)
VH: B1 VH
VL: B1 VL with D1Q, F70Y
notes: as for B1
  EC50: 0.377 nM

B5: hz26A12C1H4L3 (antibody, human IgG1, kappa, V domains shown)
VH: QVQLVQSGAEVKKPGSSVKVSCKASGYTFTNYWIQWVRQAPGQGLEWIGYINPSTYYSDYNQKFQGRVTLTADKSTSTAYMELSSLRSEDTAVYYCARRQFGLPLFDYWGQGTTVTVSS
VL: DIQMTQSPSSLSASVGDRVTITCRASQDVGTAVAWYQQKPGKVPKLLIYWASTLHSGVPSRFSGSGSGTDFTLTISSLQPEDVATYFCQQYSNYPLTFGGGTKVEIKR
notes: as for B1
  EC50: 0.738 nM

B6: hz46F1D5H4L3 (antibody, human IgG1, kappa, V domains shown)
VH: B5 VH with N31R, I48M, Y56G, S58T, L70I, Q100H, F101L
VL: B5 VL with L11V, V43A, T53S, V83F
notes: as for B1
  EC50: 1.27 nM
